Patent US20250296960A1, “PEPTIDE COMPOSITIONS AND METHODS OF USE THEREOF” (priority 2022, published 2025)
Like-named read-outs stand apart in the source and are kept apart here. Numbered stars: 1 amine (or outer) side, 2 acyl side, 3 side chain; on linkers, the order of the positions; unused ones are H or OH. Square brackets hold non-standard residues; d marks the D form. Side chains are listed from the residue outwards. Ends that are not written are not given here. C18 = C18 fatty acid (C16-C22 fatty acids conjugated via γGlu/8-amino-3,6-dioxaoctanoic acid spacers); γGlu = O=C(O)[C@H](CCC(=O)[*:2])N[*:1]; AEEA = NCCOCCOCC(=O)O; Aib = CC(C)(N)C(=O)O; MAL = maleimide

T1: human glucose-dependent insulinotropic polypeptide receptor (GIPR), expressed on CHO-K1 cells (human, UniProt P48546 22-466)
T1 sequence (looked up): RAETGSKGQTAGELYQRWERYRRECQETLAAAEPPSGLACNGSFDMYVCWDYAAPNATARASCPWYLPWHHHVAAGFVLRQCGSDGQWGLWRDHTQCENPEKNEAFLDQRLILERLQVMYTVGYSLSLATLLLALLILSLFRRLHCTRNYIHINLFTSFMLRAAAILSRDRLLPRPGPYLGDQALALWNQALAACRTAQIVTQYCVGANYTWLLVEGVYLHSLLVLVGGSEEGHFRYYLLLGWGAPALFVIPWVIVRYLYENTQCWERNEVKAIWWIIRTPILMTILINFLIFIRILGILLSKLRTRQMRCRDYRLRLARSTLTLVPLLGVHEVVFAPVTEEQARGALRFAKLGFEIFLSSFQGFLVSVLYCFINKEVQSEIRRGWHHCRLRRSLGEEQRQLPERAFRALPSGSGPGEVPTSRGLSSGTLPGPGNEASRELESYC


Key:
Experiment in all cases: cell-based or functional assay
[1] = target: T2, human GLP-1 receptor (GLP-1R), expressed on CHO-K1 cells (human, UniProt P43220 24-463)
[2] = target: T3, human glucagon receptor (GCGR), expressed on CHO-K1 cells (human, UniProt P47871 26-477)
T3 sequence (P47871 26-477): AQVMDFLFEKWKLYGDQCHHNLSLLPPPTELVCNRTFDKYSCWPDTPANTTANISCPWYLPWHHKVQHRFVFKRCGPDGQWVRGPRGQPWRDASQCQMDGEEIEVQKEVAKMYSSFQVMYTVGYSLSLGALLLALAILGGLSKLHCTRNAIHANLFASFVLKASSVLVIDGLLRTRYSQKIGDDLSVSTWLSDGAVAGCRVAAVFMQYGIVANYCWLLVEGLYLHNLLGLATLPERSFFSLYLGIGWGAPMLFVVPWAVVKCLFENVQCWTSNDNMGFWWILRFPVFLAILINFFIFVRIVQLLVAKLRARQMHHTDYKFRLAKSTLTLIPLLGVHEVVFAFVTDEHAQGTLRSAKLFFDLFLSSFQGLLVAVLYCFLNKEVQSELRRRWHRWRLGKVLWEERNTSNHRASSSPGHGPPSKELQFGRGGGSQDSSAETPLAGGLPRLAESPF

[3] = target: T1, human glucose-dependent insulinotropic …
[4] = target: T2, human GLP-1 receptor (GLP-1R), …; remark: listed apart in the source
[5] = target: T3, human glucagon receptor (GCGR), …; remark: listed apart in the source
[6] = target: T1, human glucose-dependent insulinotropic …; remark: listed apart in the source

| Binder | Percentage change in EC50 relative to GLP-1 at human GLP-1R (%) [1] [%] | Percentage change in EC50 relative to GCG at human GCGR (%) [2] [%] | Percentage change in EC50 relative to GIP at human GIPR (%) [3] [%] | Percentage change in EC50 relative to GLP-1 at human GLP-1R (%) [4] [%] | Percentage change in EC50 relative to GCG at human GCGR (%) [5] [%] | Percentage change in EC50 relative to GIP at human GIPR (%) [6] [%] |
| --- | --- | --- | --- | --- | --- | --- |
| H[Aib]QGTFTSDWSKYLDQQMAQDFVDWLINGGPSSGAPPPSC-NH2 [Peptide No. 12 (with C-terminal cysteine)] | 303 | 1200 | 4 | – | – | – |
| H[Aib]QGTFTSDHSWYLDKWTAHDFVQWLINGGPSSGAPPPSC-NH2 [Peptide No. 18 (with C-terminal cysteine)] | 40 | 1 | 0 | – | – | – |
| H[Aib]QGTFTSDHSKYLDGAWAADFVMWLLDGGPSSGAPPPSC-NH2 [Peptide No. 57 (with C-terminal cysteine)] | 1 | 1 | 0 | – | – | – |
| H[Aib]QGTFTSDWSKYLDQQMAQDFVDWLINGGPSSGAPPPSC([MAL-AEEA-AEEA-γGlu-C18])-NH2 [Peptide No. 12A (peptide 12, A type: lipid at Cys40)] | – | – | – | 296 | 15 | 8 |
